Laboratory results from the RNAGym collection of RNA variant scans (doi:10.1073/pnas.2313332121).

B1: TPR t1 (parent)
chain: GACCAAUCUGCCCUCAGAGCUCGAGAACAUCUUCGGAUGCAGAGGAGGCAGGCUUCGGUGGCGCGAUAGCGCCAACGUCCUCAACCUCCAAUGCAUCCCACCACAUGAUGAUGCCUGAAGAGCCUUGGUUUUUUG

Variants of: B1
Assay: polymerase ribozyme fitness, log enrichment relative to wild type (log ratio); higher = more active; in vitro selection for triplet polymerase activity
Summary of the method: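 Input and output libraries were sequenced on Illumina after a single in vitro selection round, run in triplicate on PCR-built, transcribed mutant libraries of each subunit of a heterodimeric triplet polymerase ribozyme. Selection annealed libraries to a biotinylated primer, the partner subunit and triplets, incubated them frozen at −7 °C, then gel-excised extended constructs for streptavidin-bead capture and RT-PCR. Genotypes with ≥10 input reads and ≥1 read per output were kept. Fitness is the logarithm, taken in base 2, of genotype enrichment divided by wild-type enrichment, using inverse-variance-weighted replicate averages.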

Row | Variant | polymerase ribozyme fitness (log ratio)
1 | GACCAAUCUGCCCUCAGAGCUCGAGAACAUCUUCGGAUGCUGAGGAGGUAGGCUUCGGUGGCGCGAUAACGCCAACGUCCUCAACCUCCAAUGCAUCCCACCACAUGAUGAUGCCUGAAGAGCCUUGGUUUUUUG [A41U C49U G69A] | -6.56
2 | GACCAAUCUGCCCUCAGAGCUCGAGAACAUCCUCGGAUGCAGAGGAGGCAGGCUUCGGUGGCGCGAUAGCGCCAACGUCCUCAACCACCAAUGCAUCCCACCACAUGAUGAUGCCUGAAGAGCCUUGGUUUUUUG [U32C U87A] | -0.0352
3 | GACCAAUCUGCCCUCAGAGCUCGAGAACAUCUUCGGAUGCAGAGUAGGCAGGCUUCGGUGGCGCGAUAUCGCCAACGUCCUCAACCUCCAAUGCAUCCCACCACAUGAUGAUGCCUGAAGAGCCUUGGUUUUUUG [G45U G69U] | -0.706
4 | GACCAAUCUGCCCUCAGAGCUCGAGAACUUCUUCGGAUGCAGAGGAGGCAGGCUUCGGUGGCGCGAUAGCGUCAACGUCCUCAACCUCCAAUGCAUCCCACUACAUGAUGAUGCCUGAAGAGCCUUGGUUUUUUG [A29U C72U C102U] | -5.4
5 | GACCAAUCUGCCCUCAGAGCUCGAGAACAUCUUCGGAUGCAGAGGAGGCAGGCUUUGGUGGCGCGAUAGCGCCAAGGUCCUCAACCUCCAAUGCAUCCCACCACAUGAUGAUGCCUGAAGAGCCUUGGUUUUUUG [C56U C76G] | -2.08
6 | GACCAAUCUGCCCUCAGAGCUCGAGAACAUCUUCGGAUGCAGAGGAGGCAGGCUUCGGUGGCGCGAUACCGCCAACGUCCUCAACCUCCAAUGCAUUCCACCACAUGAUGAUGCCUGAAGAGCCUUGGUUUUUUG [G69C C97U] | -2.66
7 | GACCAAUCUGCUCUCAGAGCUCGAGAACAUCUUCGGUUGCAGAGGAGGCAGGCUUCGGUGGCGCGAUAGCGCCAACGUCCUCAACCUCCAAUGCAUCCCACCACAUGAUGAUGCCUGAUGAGCCUUGGUUUUUUG [C12U A37U A119U] | -0.00616
8 | GACCAAUCUGGCCUCAGAGCUCGAGAACAUCUUCGGAUGAAGAGGAGGCAGGCUUCGGUGGCGCGAUAGCGCCAAGGUCCUCAACUUCCAAUGCAUCCCACCACAUGAUGAUGUCUGAAGAGCCCUGGUUUUUUG [C11G C40A C76G C86U C114U U125C] | -5.11
9 | GACCAAUCUGCCCUCAAAGCUCGAGAACAUCUUCGGAUGCAGAGGAGGCAGGCUUCGGUGGCGCGAUAGCGCCAACGUCCUCAACCUCCAAUGCUUCCCACCACAUGAUGAUGCCUGAAGAGCCUUGGUUUUUUG [G17A A95U] | -3.81
10 | GACCAAUCUGCCCUCAGAGCUCGAGAACAUGUUCGGAUGCAGAGGAGGCAGGAUUCGGUGGCGCGAUAGCUCCAACGUCCUCAACCUCCAAUGCAUCCCACCACAUCAUGAUGCCUGAAGAGCCUUGGUUUUUUG [C31G C53A G71U G107C] | -1.67
11 | GACCAAUGUGCCCUCAGAGCUCGAGAUCAUCUUCGGAUGCAGAGGAGGCAGGCUUCGGUGGCGCGAUAGCGCCAACGUCCUCAACCUCGAAUGCAUCCCACCACAUGAUGAUGCCUGAAGAGCCUUGGUUUUUUG [C8G A27U C89G] | -4.7
12 | GACCAAUCUGCCCUCAGAGCUCGAGAACAUCUGCGGAUGCAGAGGAGGCAGGCUUCGGUGGCGCGAUAGCGCCAACGUCCUCAACCUCCAAUGCAUCCCACCACAUGAUGAUGCCUGAAGAGCGUUGGUUUUUUG [U33G C124G] | -4.16
13 | GACCAAUCUGCCCUCAGAGGUCGAGAACAUCUUCGGAUGCAGAGGAGGCAGGCUUCGGUGGCGCGAUAGCCCCAACGUCCUCAACCUCCAAUGCAUCCCACCACAUGAUGAUGCCUGAAGAGCCUUGGUUUUUUG [C20G G71C] | -5.08
14 | GACCAAUCUGCCCUCAGAGCUCGAGAACAUCUUCGGAUGCAGAGGAGGCAGGCUUCGGUGGCGCGAUAACGCCAACGUCCUCAACCUCCAAUGCAUCCCACCACAUGAUGAUGCCUCAAGAGCCUUGGUUUUUUG [G69A G117C] | -5.44
15 | GACCAAUCUGCCCUCAGAGCUCGAGAACAUCUUCGUAUGCAGAGGAGGCAGGCUUAGGUGGCGCGAUAGCGCCAACGUCCUCAACCUCCAAUGCAUCCCACCACAUGAUGAUGCCUGAAGAGCCUUGGUUUUUUG [G36U C56A] | -1.83
16 | GACCAAUCUGCCCUCAGAGCUCGAGAACAUCUUCGGAUGCAGAGGAGGCAGGCUUUGGUGGCGCGAUAGCGCCAACGCCCUCAACCACCAAUGCAUCCCACCACAUGAUGAUGCCUGAAGAGCCUUGGUUUUUUG [C56U U78C U87A] | 0.212
17 | GACCAAUCUGCACUCAGAGCUCGAGAACAUCUUCGGAUGCAGAGGAGGCAGGCUUCGGUGGCGCGAUAGCGCCAACGUCCUCAACCUCCAAUGCAUCCCACCACAUGAUGAUGCCUGAAAAGCCUGGGUUUUUUG [C12A G120A U126G] | 0.354
18 | GACCAAUCUGCCCUCAGAGCUCGAGAACAUCUUCGGAUGCAGAGGAGGCAGGCUUCGGUGGCGCGAUACCGCCAACGUCCUCAACCUCCAAUGCAUCCCACCACAUGAUGAUGCCUGAAUAGCCUUGGUUUUUUG [G69C G120U] | -0.245
19 | GACCAAUCUGUCCUCAGAGCUCGAGAACAUCAUCGGAUGCAGAGGAGGCAGGCUUCGGUGGCGCGAUCUCGCCAACGUCCUCAACCUCCAAUGCAUCAAACCACAAGAUGAUGCGUCAAGAGCCUUGGUUUAUUG [C11U U32A A68C G69U C98A C99A U106A C115G G117C U132A] | -6.55
20 | GACCAAUCUGCCCUCAGAGCUCGAGAACAUCUUCGGAUGCAGUGGAGGCCGGCUUCGGUGGCGCGAUAGCGCCAACAUCCUCAACCUCCAAUGCAUCCCACCACAUGAUGAUGCCUGAAGAGCCUCGGUUUUUUG [A43U A50C G77A U126C] | -3.5
21 | GACCAAUCUGCCCUCAGAGCUCUAGAACAUCUUCGGAUGCAGAGGAGGCAGGCUUCGGUUGCGCCAUAGCGCCAACGUCCUCAACCUCCAAUGCAUCCGACCACAUGAUGAUGCCUGAAGAGUCUUGGUUUUUUG [G23U G60U G65C C99G C123U] | -7.81
